Data published in the nanobody polyreactivity screen of Harvey et al. (2022).

Assay: yeast display, Sf9 membrane polyspecificity reagent, FACS + sequencing; frameworks hold sequencing errors
In short: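 Galactose-induced (36–48 hours) yeast carrying a synthetic nanobody display library were exposed to 10% biotinylated, detergent-solubilized Sf9 membrane reagent at 4 °C for 1 hour. FACS followed streptavidin microbead enrichment, using low and high (top ~1%) gates for expression (anti-HA) and reagent binding (streptavidin). Colony PCR, MiSeq 2 × 250 sequencing and CDR-length filtering followed. Labels for polyreactivity reflect the gate of origin.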

| Sequence | polyreactivity (PSR sort gate) |
| --- | --- |
| QVQLVESGGGLVQAGGSLRLSCAASGSIFGDNAMGWYRQAPGKERELVATISSSDASTYYADSVKGRFTISRDNAKNTVYLQMNSLKPEDTSVYYCAAARSGGYDYWGQGTQVTVSS | low polyreactivity |
| QVQLVESGGGLVQAGGSHRLSCAASGSIFRQNAMGWYRQAPGKERELVAAITRGGGGTTYYADSVKGRFTISRDNAKNTVYLQMNSLKPEDTAVYYCAKAYEVRVEVDYWGQGTQVTVSS | low polyreactivity |
| QVHLVDSGGGLVQAGGRLRLSCAASASIFLIYAMGWYRQAPGQERELVAAINYSGVRTYYADSVKGRFTISRDNAKNTVYLQMNSLKPEDSAVYYCAVSRGGAYYQYGYWGQGTQVSVSS | high polyreactivity |
| QVQLQESGGGLVQEGGSLRLTCAASGNISPPADMGWYRQAPGKERELVASIGTGGTTNYADSVKGRFTISRDNAKNTVYLQMNSLKPDDTAVYYCAAVRYEYNPYDYWGQGTQVSVSS | low polyreactivity |
| QVQLVESGGRLVQAGGSIRLSCAASGRTFYTNAMGWYRQAPGKERELVAAISSGGSTYYADSVKGRFTISRDNAKNTVYLQMNSLKPEDTAVYYCNVRRGGWGYRYYYWGQGTQVTVSS | high polyreactivity |
| QVQLVESGGGLVQAGGSLRLSCAASGNIFIYNAMGWYRQAPGQERELVAAISVSGGDTYYADSVKGRFTISRDNAKNTVYLQMNSLKPEDTAVYYCKASYVLTGQRYGYWGQGTQVTVSS | low polyreactivity |
| QVQLVESGGGLVQAGGSLRLSCAASGRIFHRYAMGWYRQAPGKEREFVAAITYSTGTTYYADSVKGRFTISRDNAKNTVYLQMNSLKPEDTAVYYCAKDSRFWHKSWFAYGYDYWGQGTQVTVSS | low polyreactivity |
| QFQLVESGGGLVQAGGSLRLSCAASGNTFINYAMGWYRQATRKEREVVAAISKRGGSTYYADSVKGRFTISRDNAKNTVYLQMNSLKPEDTAVYYCAARLKTYKEGDYCGQGTQVTVSS | high polyreactivity |
| QVQLVESVGGLVQAGGSLRLSCAASGRTFSRFAMGWYRKAPGKERELVAAISYSGGRTYYADSVKGRFTISRDNAKNTVYLQMNSLKPEDTAVYYCAASWPGDTVDYDYWGQGTQVTVSS | high polyreactivity |
| QVQLVESGGGLVQAGGSLRLSCAASGSIFPEYAMGWYRQAPGKERELVASISSGGSSTYYADSVKGRFTISRDNAKNTVYLQMNSLKPEDTAVYYCARRRSYKRRFDYWGQGTQVTVSS | low polyreactivity |
| QVQLVESGGGLVQAGGSLRLSCAASGSIFGTNAMGGYRQAPGKERELVAAIRGSGGRTYYADSVKGRFTISRDKAKNTVYLEMNSLKPEDSAVYYCAAPGNPYCWGYNYYYWGQGTQVTVSS | high polyreactivity |
| QVQLVESGGGLVQAGGSLRLSCAASGFTFRYYVMGWYRQAPGKERELVATITWGGGSTYYADSVKGRFTISRDNAKNTVYLQMNSLKPEDPAVYYCAASLKWGRGVLARVLWYNYWGQGTQVTVSS | low polyreactivity |
| QVQLEESGGGLVQSGGSLRLSCAASGRTFSGYAMGSYRQAPGKERELVSAISFSGGSTYYADSVKGRFTISRDNAMNTVYLQMNSLIPEDTAVYYCNAYSWYNGIGNYDYWGQGTQVTVSS | low polyreactivity |
| QVQLVESGGGLVQAGGSLRLSCAAYGLIFAISAMGWYRQAPGKERELVAAIRWSGASTYADSVKGRFTISRDNAKNTVYLQMNSLKTEDTAVYYCAADDLLHYDYWGQGTQVTVSS | low polyreactivity |
| QVQLVESGGGLVQAGGSLRLSCAASGFTFDSYDMGWYRQAPGKERELVAAITWSGGSTYYADSVKGRFTISRDNAKNTVYLQMYSLKPEDTAVYYCKADTGTYWVPWYHDGYDYWGEGTQVTVSS | low polyreactivity |
| QVQLVESGGGLVQAGGSLRLSCAASGRIFRYYAMGWYRQAPGKERELVATITASSGSTYYADSVKGRFTISRDNAKNTVYLQMNSLKPEDTAVYYCAAGFVYRPGSFIRFDYWGQGTQVTVSS | high polyreactivity |
| QVQLVESGGGLVQAGGSLRLSWAASGFIFVSNAMGWYRQAPGKERELVAAITSGDNTKYADSVKGRFTISRDNAKNTVYLQMNSLKPEDTAVYYCAVTNRYQGAGYYWGQGTQVTVSS | low polyreactivity |
| QLQLVESGRGLVQAGGTLRLSCAASGRIFGKNAIGSYRQAPGKEMELVAAITGSGGRTYNADSVKGRFTISRDNAKNTVYLQMNSMKPEDTAVYYCAVRVTSYYRTMDYWGQGTQGTVSS | low polyreactivity |
| QVQLVESGGGLVQAGGSLRLSCAASGRTFSLNAMGWYRQAPGKERELVAAINRGGTTYYADSVKGRFTISRDNAKNTVYVQMNSLKPEDTAVYYCAARYISSYDWGQGTQVTVSS | high polyreactivity |
| QFQLVESGGGLVQAGGSLRLSCAASGRIFVINAMGWYRKATGIETELVAAISSSGGSTSYADSVKGRFTISRDNAKNTVYLQMNSLKPEDTAVYYCADKPRVRRDDGYYWGQGTLVTVSS | high polyreactivity |
| QVQLVESSGGLVQAGGSLRLSCAASGSTFALYAMGRYSQAPGKERELVAAITASGGSTYYADSVKGRLTISRDIAKKTVDLQMNSLKAEDTAVYYCATGRTKRYLYPPGYWGQGTQVTVSS | high polyreactivity |
| QVQLVESGGGLVQAGGSLRLSCAASGITFRVNTMGWYRKAPGKETEFVATISYSGDSTYYADSVKGRFTISRDNAKNTVYLQMNSLKPEDTAVYYCATELVFYGRDYWGQGTQVTVSS | low polyreactivity |

| Sequence | polyreactivity (PSR sort gate) |
| --- | --- |
| QVQLVESGGGLVQAGGSLRLSCAASGRIFGYYAMGWYRQAPGKERELVAAISWSGGSTFYADSVKGRFTISRDYAKNTVYLQMISLKPEDTAVYYCNKDHLVYPSEFYYWGQGTQVTVSS | low polyreactivity |
| QVQLVESGGGLVQAGGSLRLSCAASGRIFWRNALGWYRQAPGKERELVAAITYSGGSTYYADSVKGRFTISRDNAKNTVYVQMNSLNPEDTAVYYCNTVEGWRYYGQSLYAYYYWGQGTQVTVSS | high polyreactivity |
| QVQLVESRGGLVQAGGSLRLSCAASGRILDLNSMGWYRQAPGKEREFVAAISYSGGRTYYADSVKGRFTISRDNAKNTVYLQMNSLKPEDTAVYYCATDDVWKDGYWGQGTQVTVSS | low polyreactivity |
| QVQLVESGGGLVKAGGSLRLSSAATGSTFWEYVMGWYRQPPGKERELVAAITTNDDSTYYADSVKGRFTISRDNAKKTVYLQMNSLKPEDTAVYYCNADQITGQFDYWGQGTQVTVSS | low polyreactivity |
| QVQLVESGGGLVQAGGSLRLSCAASGLIFSFYAMGWYRKAPGKERELVATISNTDSTNYADSVKGRFTISRDNAKNTVYLQMNRLKPEDTAVYYCAADVWDGRYLYTGVYDYWGQGTQVTVSS | low polyreactivity |
| QVQLVESGGGLVQAGGSLRLSCAASGSTFDFNAMGWYRQAPRKERELVASISWDTGGTYADSVKGRFTISRDNAKNSFYLQMNSLKTEDTAVYFCAARPDYFIFDYWGQGTQVTVSS | low polyreactivity |
| QVQLVESGGGLVQAGGSLRLSCAASGRTLGRNAMGWYRQAPGKERELVASISSGGSTNYADSVKGRFTISRDNAKNTVYLQMNSLKPEDTAVYYCNKRYRSLYSSGYDYWGQGTQVTVSS | high polyreactivity |
| QVQLVESGGGLVQAGGSLRLSCASSGLTFKQYAMVWYRQAPGKERELVAAITVSGGDTYYADSVKGRFTISRDNAKNTVYLQMNSLKPEDTAVYYCAAEHFFWGYDYWGQGTQVTVSS | high polyreactivity |
| QVQLVESGGGLVQAGGSLRLICAASGRTFKYYAMGWYRQAPGKERELVATITWSGTSTNYADSVKRRFTISRDIGKNSVYLQMNSLKPEDSAVYYCAARSKRRNYDYWGQGTQVTVSS | high polyreactivity |
| QVQLVESGGGLVQAGGSLRISCAASGSIFHDNAMGWYRQAPGKERELVAASTTSGGNTYYADSVKGRFTISRDNAKNTVYLLMNSLKPEDTAVYYCAAGQSVFASWLDNGWSAYTYYYWGQGTQVTVSS | low polyreactivity |
| QVQLVESVGGLVQAGGSLRLSCAASGNTFHTNAMGWYRQAPGKERELVAAITGGGSTYYADSVKGRFTISRDNAKNTVYLQMNSLKPEDTAVYYFNTDVPYGLDVSDTIDYYYWGQGTQVTVSS | low polyreactivity |
| QVQLVESGGGLVQAGGSLRLSCAASGRIFLGYAMGWYRQAPGKERELVAAISAGGGSTYYADSVKGRFTISRDTAKNTVYLLMNSLKPEDTAVYYCAARRPHIPVKTYDYWGQGTQVTVSS | high polyreactivity |
| QVQIVESGGGLVQAGGSLRLSSPASGRTLPSYAMGWYRQAPGKERELVAAITRSGGRTYYADSVKGRFTISRDNAKYTVYLQMNSLKPEDTAVYDCAARQDDYGKIYYYWGQGSQVTVSS | high polyreactivity |
| QVQLVESGGGLVQAGGSLRLSCAASGRTLYSNAMGWYRQSPGKERELVAAISSRGGRTYYADSVKGRFTISRDNAKNTVYLQMNSLKPVDTAVYYCNAAYGTGRRQAKSDYWGQGTQVTVSS | high polyreactivity |
| QVQLVESGGGLVQAGGSLRLSCAASGIIFKRYVMGWYRQAPGKDRQLVAGISWSGVSTFYADSVKGRFTISRDNAKNTVYLQMNSLKPEDTAVYYCAADRARYYYQAYGAYGYWGQGTQVTVSS | high polyreactivity |
| QVQLEESAGRLVQARGSLRLSCAASGSTFGYNAMGWDSQAPGKARELVAALTRRGGRTYYADSVKGRFTISRDNAKNTVYLQMNSLKPEDTAVYYCAATSRGSGQRPGEAIIDYYYWGQGTQVTVSW | high polyreactivity |
| QVQLEESGGGLVQAGGSLRLSCAASGRIFYTYVMGWYRQAPEKERELVAAITGGGSKYYAYSVKGRFTISRDNAKNTVYLQMNSLKPEDTAVSYCAKRSYGDRDERYDSWGQGTQVTVSS | low polyreactivity |
| QVQHVESGGGLVQAGGSLRLSCAASGSTFYYYAMGWYRQARGKERELVATISRSTARTFYADSVKGRFTISRDNAKITVYLQMNSLKPEDTAVYYCAREYYYRRGFFLRGYWGQGTQVTVSS | high polyreactivity |
| QLQLVESGGGLGQAGGSLRLSCAASGSIFDHYAMGWYRQAPGKERELVASMSKCGGSTYYADSVKGRFTISRDNAKNTVYLQMNSLKPEDTAVYYCASKQYYRGHNYWGQGTQVTVSS | high polyreactivity |
| QVHLVESGGGFVQAGGSLGLSCAASGLTFSGNTMGCYTPAPGKERELVAAISSDGSTNYADSVKGRFTLSRDNAKYSVYLQMNSLKPEDTAVYYCNARVRYYFAFWRDYWGQGTQVTVSS | low polyreactivity |
| QVQLVESAGGLVQAGGSLRLSCAASGRIFQFYAMGWYRQARGKERELVAVITRRGGSTHYADSVKGRFTISRDTAKNTVYLQMNILKPEDTAVYYCAKVPFHFVSPYDYWGQGTQVTVSS | high polyreactivity |
